Values joined by “and” are separate entries in the source; they are usually repeats but may differ in a detail not shown here. Equal values may be shown once.
Experiments:
[1] = test system: spontaneously beating normal mouse hearts (C57BL/6J); experiment: Langendorff preparation, hearts perfused with rMIF (C57BL/6J); settings: C57BL/6J hearts, 20 ng/ml rMIF, 1.5 ml/m
Protocol: (§1) Determination of cardiac function in response to rMIF. C57BL/6J and C3H/HeJ mice were used in the Langendorff assays. Briefly, 200 U heparin sulfate was given i.p., the mice sacrificed 20 m later, and the heart immediately removed and placed on ice in Krebs-Hanseleit Buffer ([…], 118 mM NaCl, 4.7 mM KCL, 1.2 mM KH2PO4, 1.2 mM MgSO4, 2.5 mM CaCl2, 11.1 mM glucose, pH 7.4, which was prepared fresh with demineralized, deionized water and bubbled with 95% O2 and 5% CO2 (PO2 590 mmHg, pCO2 38 mmHg)). The aorta was cannulated with PE50 tubing, the heart perfused in a retrograde manner through the aortic root with prefiltered, oxygenated Krebs-Hanseleit Buffer at a constant flow rate of 1.5 ml/m (T 37° C.) and a recirculating volume of 100 ml. The heart was placed in a water-jacketed chamber to maintain constant temperature and humidity. PE60 intratnedic polyethylene tubing was connected to a Statham pressure transducer inserted into the left ventricle (LV) to measure LV pressure. Temperature was monitored using a 27 G thertnistor needle inserted into the LV muscle. […] Following stabilization, LV pressure and its first derivative (dP/dt), heart rate, and coronary perfusion were measured simultaneously with a multichannel Grass 7D polygraph (Grass Instruments, Quincy, M A). Cardiac function for all hearts was determined by plotting peak systolic LV pressure and ±dP/dt,Ia, values against changes in coronary flow rate.
(§2) MIF induces systolic and diastolic cardiac dysfunction. […] Responses to MIF were determined in hearts from both C57BL/6J mice, and C3H/HeJ mice. C3H/HeJ mice are resistant to endotoxin (41-43), therefore controlling for the possibility that any depression observed might be due to trace endotoxin in the perfusate. Table 2 illustrates the responses of both mouse strains to retrograde aortic perfusion at 1.5 ml/m with control perfusate or perfusate containing 20 ng/ml recombinant MIF. Perfusion with MIF led to a significant decrease in LVP, +dP/dtmax, and −dP/dt max in both mouse strains. FIG. 4 illustrates the effect of MIF over a range of coronary flow rates. […]

[2] = test system: spontaneously beating normal mouse hearts (endotoxin resistant C3H/HeJ); experiment: Langendorff preparation, hearts perfused with rMIF (C3H/HeJ); settings: 20 ng/ml rMIF, 1.5 ml/m
Protocol: as §1, §2

isolated TNFR−/− hearts = experiment: Langendorff perfusion with rMIF, TNFR−/− hearts; set-up: species or system mouse
Protocol: (§3) Ex vivo cardiac function determination by Langendorff Mouse heart function was determined using the Langendorff assay procedure. Briefly, 200 Units heparin sulfate were injected intraperitoneally and the mice were sacrificed 20 minutes later. The heart was immediately removed and placed on ice in Krebs-Henseleit Buffer ([…], 118 mM NaCl, 4.7 mM KCL, 1.2 mM KH2PO4, 1.2 mM MgSO4, 2.5 mM CaCl2, 11.1 mM glucose, pH 7.4, which was prepared fresh with demineralized, deionized water and bubbled with 95% O2 and 5% CO2(pO2 590 mmHg, pCO2 38 mmHg)). The aorta was cannulated with PE50 tubing, the heart perfused in a retrograde manner through the aortic root with pre-filtered, oxygenated Krebs-Henseleit Buffer at a constant flow rate of 1.5 ml/minute (constant temperature of 37° C., 100 ml recirculating volume). The heart was placed in a water-jacketed chamber to maintain constant temperature and humidity. Intramedic polyethylene tubing (PE60), connected to a Statham pressure transducer, was inserted into the left ventricle (LV) to measure LV pressure. Temperature was monitored using a 27 gauge thermistor needle inserted into the LV muscle. […] Following stabilization, LV pressure and its first derivative (dP/dt), heart rate, and coronary perfusion were measured simultaneously with a multi-channel Grass 7D polygraph (Grass Instruments, Quincy, Mass.). Ventricular performance as a function of coronary perfusion was determined for all hearts by plotting peak systolic LV pressure and ±dP/dtmax values against incremental increases in coronary flow rate.
(§4) MIF has direct cardiodepressant effects in TNFR−/− mice to the same extent as in WT mice.

[3] = test system: isolated wild type hearts; experiment: Langendorff perfusion with rMIF, wild type hearts; set-up: species or system mouse; settings: WT + rMIF 20 ng/ml
Protocol: as §3, §4

C57BL/6 hearts = experiment: Langendorff, rhMIF added to perfusate, C57BL/6 hearts; set-up: species or system mouse; LVP / TPP / RT90 / Max + d / Max − d: unit not given beside the values
[4] = C57BL/6 + rhMIF in perfusate, n = 3
[5] = C57BL/6 + rhMIF, single hearts by date and mean (x), n 3
[6] = C57BL/6 + rhMIF, single hearts by date and mean (x), n 3, mean

B1: rMIF: recombinant human macrophage migration inhibitory factor added to the heart perfusate at 20 ng/ml (protein, UniProt P14174 2-115, looked up)
Macrophage migration …: PMFIVNTNVPRASVPDGFLSELTQQLAQATGKPPQYIAVHVVPDQLMAFGGSSEPCALCSLHSIGKIGGAQNRSYSKLLCGLLAERLRISPDRVYINYYDMNAANVGWNNSTFA
Q: Which “+dP/dt max” value ([1]; n = 10) does the source give for B1 here?
A: Its value is 1920 ± 89 mm Hg/see.

Q: And the “−dP/dt max” value ([1]; n = 10)?
A: The value was 1545 ± 122 mm Hg/sec.

Q: What about the LVP ([1]; n = 10, mean peak) of the same molecule?
A: The LVP was 77.9 ± 5.1 mm Hg.

Q: And the “+dP/dt max” value ([2]; n = 7)?
A: Its value is 1800 ± 106 mm Hg/see.

Q: And the “−dP/dt max” value ([2]; n = 7)?
A: The value was 1343 ± 138 mm Hg/sec.

Q: What about the LVP ([2]; n = 7, mean peak) of the same molecule?
A: Its LVP is 75.2 ± 5.5 mm Hg.

Q: And the CPP (isolated TNFR−/− hearts; TNF KO + rMIF 20 ng/ml, n = 4)?
A: The CPP was 91.5 ± 6.6 mmHg.

Q: And the CVR (isolated TNFR−/− hearts; TNF KO + rMIF 20 ng/ml, n = 4)?
A: The CVR was 61.0 ± 4.4 mmHg.

Q: And the DR (isolated TNFR−/− hearts; TNF KO + rMIF 20 ng/ml, n = 4)?
A: Its DR is 1.30 ± 0.10.

Q: And the HR (isolated TNFR−/− hearts; TNF KO + rMIF 20 ng/ml, n = 4)?
A: Its HR is 335 ± 20 bpm.

Q: And the RT90 (isolated TNFR−/− hearts; TNF KO + rMIF 20 ng/ml, n = 4)?
A: Its RT90 is 71.3 ± 4.2 ms.

Q: And the TPP (isolated TNFR−/− hearts; TNF KO + rMIF 20 ng/ml, n = 4)?
A: Its TPP is 67.0 ± 2.4 ms.

Q: And the “Time to Max +dP/dt” value (isolated TNFR−/− hearts; TNF KO + rMIF 20 ng/ml, n = 4)?
A: The value was 47.0 ± 2.4 ms.

Q: And the “Time to Max −dP/dt” value (isolated TNFR−/− hearts; TNF KO + rMIF 20 ng/ml, n = 4)?
A: Its value is 47.0 ± 2.4 ms.

Q: What about the dP40 (isolated TNFR−/− hearts; TNF KO + rMIF 20 ng/ml, n = 4) of the same molecule?
A: The dP40 was 1613 ± 105 mmHg/sec.

Q: What about the “−dP/dt max” value (isolated TNFR−/− hearts; TNF KO + rMIF 20 ng/ml, n = 4) of the same molecule?
A: The value was 1413 ± 151 mmHg/sec.

Q: What about the LVP (isolated TNFR−/− hearts; TNF KO + rMIF 20 ng/ml, n = 4, mean ± SE) of the same molecule?
A: Its LVP is 66.0 ± 4.7 mmHg.

Q: And the “+dP/dt max” value (isolated TNFR−/− hearts; TNFR−/− + rMIF 20 ng/ml, n = 4)?
A: The value was 1800 ± 100 mmHg/sec.

Q: What about the “onset of cardiac dysfunction (systolic and diastolic)” value (isolated TNFR−/− hearts; isolated hearts (Langendorf prep), both TNFR−/− and wild type mice) of the same molecule?
A: Its value is no more than 20 min.

Q: What about the “+dP/dt max” value ([3]; n = 5) of the same molecule?
A: The value was 1400 ± 158 mmHg/sec.

Q: What about the CPP ([3]; n = 5) of the same molecule?
A: The CPP was 84.8 ± 8.6 mmHg.

Q: And the CVR ([3]; n = 5)?
A: Its CVR is 56.5 ± 5.7 mmHg.

Q: What about the DR ([3]; n = 5) of the same molecule?
A: Its DR is 1.32 ± 0.06.

Q: And the HR ([3]; n = 5)?
A: Its HR is 338 ± 10 bpm.

Q: And the RT90 ([3]; n = 5)?
A: The RT90 was 75.2 ± 2.9 ms.

Q: And the TPP ([3]; n = 5)?
A: Its TPP is 71.6 ± 1.6 ms.

Q: And the “Time to Max +dP/dt” value ([3]; n = 5)?
A: The value was 49.2 ± 0.5 ms.

Q: What about the “Time to Max −dP/dt” value ([3]; n = 5) of the same molecule?
A: The value was 52.4 ± 1.7 ms.

Q: What about the dP40 ([3]; n = 5) of the same molecule?
A: Its dP40 is 1240 ± 174 mmHg/sec.

Q: And the “−dP/dt max” value ([3]; n = 5)?
A: Its value is 1070 ± 146 mmHg/sec.

Q: What about the LVP ([3]; n = 5, mean ± SE) of the same molecule?
A: The LVP was 55.6 ± 5.9 mmHg.

Q: What about the “Coronay Perfusion Pressue” value (C57BL/6 hearts; [4]) of the same molecule?
A: Its value is 86.0 ± 23 mmHg.

Q: And the “Coronay Vascular Resistance” value (C57BL/6 hearts; [4])?
A: Its value is 57.3 ± 7.7 mmHg.

Q: What about the “Heart Rate” value (C57BL/6 hearts; [4]) of the same molecule?
A: The value was 318 ± 2 bpm.

Q: What about the “Left Ventricular Pressure” value (C57BL/6 hearts; [4]) of the same molecule?
A: Its value is 52.7 ± 6.6 mmHg.

Q: What about the “Time to 90% Relaxation” value (C57BL/6 hearts; [4]) of the same molecule?
A: The value was 73.3 ± 4.4 ms.

Q: What about the “Time to Max +dP/dt” value (C57BL/6 hearts; [4]) of the same molecule?
A: The value was 47.0 ± 2.1 ms.

Q: And the “Time to Max −dP/dt” value (C57BL/6 hearts; [4])?
A: Its value is 49.0 ± 1.5 ms.

Q: And the “Time to Peak Pressue” value (C57BL/6 hearts; [4])?
A: The value was 74.0 ± 3.1 ms.

Q: What about the dP40 (C57BL/6 hearts; [4]) of the same molecule?
A: The dP40 was 1200 ± 115 mmHg/sec.

Q: What about the “−dP/dt max” value (C57BL/6 hearts; [4]) of the same molecule?
A: Its value is 1233 ± 159 mmHg/sec.

Q: And the “+dP/dt” value (C57BL/6 hearts; [5])?
A: The value was 1650 and 1100.

Q: And the DR (C57BL/6 hearts; [5])?
A: Its DR is 1.1 and 1.158 and 1.2.

Q: And the HR (C57BL/6 hearts; [5])?
A: The HR was 320 and 315.

Q: What about the LVP (C57BL/6 hearts; [5]) of the same molecule?
A: The LVP was 62 and 40 and 56.

Q: What about the “Max + d” value (C57BL/6 hearts; [5]) of the same molecule?
A: The value was 48 and 50 and 43.

Q: What about the “Max − d” value (C57BL/6 hearts; [5]) of the same molecule?
A: The value was 52 and 48 and 47.

Q: What about the RT90 (C57BL/6 hearts; [5]) of the same molecule?
A: The RT90 was 80 and 75 and 65.

Q: What about the TPP (C57BL/6 hearts; [5]) of the same molecule?
A: Its TPP is 72 and 80 and 70.

Q: What about the dP40 (C57BL/6 hearts; [5]) of the same molecule?
A: Its dP40 is 1400 and 1000 and 1200.

Q: What about the “−dP/dt” value (C57BL/6 hearts; [5]) of the same molecule?
A: Its value is 950 and 1250.

Q: And the DR (C57BL/6 hearts; [6])?
A: The DR was 1.153.

Q: And the HR (C57BL/6 hearts; [6])?
A: Its HR is 318.3333.

Q: What about the LVP (C57BL/6 hearts; [6]) of the same molecule?
A: The LVP was 52.67.

Q: What about the “Max + d” value (C57BL/6 hearts; [6]) of the same molecule?
A: Its value is 47.

Q: And the “Max − d” value (C57BL/6 hearts; [6])?
A: Its value is 49.

Q: What about the RT90 (C57BL/6 hearts; [6]) of the same molecule?
A: The RT90 was 73.33.

Q: What about the TPP (C57BL/6 hearts; [6]) of the same molecule?
A: Its TPP is 74.

Q: And the “−dP/dt” value (C57BL/6 hearts; [6])?
A: The value was 1233.333.

From patent US20050202010A1, “Method of treatment and bioassay involving macrophage migration inhibitory factor (MIF) as cardiac-derived myocardial depressant factor” (priority 2003, published 2005)
